The values that follow come from paper PMC3003642, “DPI-ELISA: a fast and versatile method to specify the binding of plant transcription factors to DNA in vitro”.

Data set [1] deals with T1, AtBPC2 (Arabidopsis thaliana, UniProt Q9LDE2 1-279).
T1 sequence: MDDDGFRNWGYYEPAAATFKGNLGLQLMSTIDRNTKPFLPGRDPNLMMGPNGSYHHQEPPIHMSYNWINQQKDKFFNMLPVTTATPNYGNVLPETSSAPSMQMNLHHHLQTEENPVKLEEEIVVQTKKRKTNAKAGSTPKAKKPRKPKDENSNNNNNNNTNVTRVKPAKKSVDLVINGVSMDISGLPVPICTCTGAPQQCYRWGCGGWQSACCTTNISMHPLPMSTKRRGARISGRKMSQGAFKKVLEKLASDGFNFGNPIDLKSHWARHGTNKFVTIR
Briefly: competition DPI-ELISA; 100-1000 pmol competitor vs 2 pmol GABio; DPI-ELISA: 2 pmol ds-bio DNA per well, crude E. coli extract in protein extraction buffer (HEPES, 100 mM salt per Additional file 1), 1 h, PBS-T washes pH 7.5. The note with it: protein: recombinant; tags: N-terminal His (pET32b-GW). (In general: In an ELISA, binding on a coated surface is turned into a signal by an enzyme label.)

The target of data set [2] is T2, AtbZIP63 (Arabidopsis thaliana, UniProt B9DGI8 1-314).
T2 sequence: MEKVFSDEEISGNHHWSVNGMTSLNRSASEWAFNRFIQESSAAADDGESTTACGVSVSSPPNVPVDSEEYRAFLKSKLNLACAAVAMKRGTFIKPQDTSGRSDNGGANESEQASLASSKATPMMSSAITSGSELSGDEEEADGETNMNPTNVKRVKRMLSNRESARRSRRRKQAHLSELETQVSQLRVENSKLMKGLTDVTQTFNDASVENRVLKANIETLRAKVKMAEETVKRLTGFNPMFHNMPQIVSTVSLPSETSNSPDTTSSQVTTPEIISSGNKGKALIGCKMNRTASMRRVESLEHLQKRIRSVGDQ
Kind of data set: EMSA; DPI-ELISA: 2 pmol ds-bio DNA per well, crude E. coli extract in protein extraction buffer (HEPES, 100 mM salt per Additional file 1), 1 h, PBS-T washes pH 7.5. The note with it: protein: recombinant; tags: C-terminal V5:His; chain copies: 2; label: 5' biotin (DPI-ELISA); 33P (EMSA).

Data set [3] concerns the target AtWRKY50DBD (Arabidopsis thaliana, UniProt Q8VWQ5 99-173). Kind of data set: DPI-ELISA; not corrected for protein concentration in extract; DPI-ELISA: 2 pmol ds-bio DNA per well, crude E. coli extract in protein extraction buffer (HEPES, 100 mM salt per Additional file 1), 1 h, PBS-T washes pH 7.5. The following applies: protein: recombinant; tags: C-terminal V5:His; label: 5' biotin (DPI-ELISA); 33P (EMSA). A general note: A gel shift assay detects complexes by their altered migration in electrophoresis.

In data set [4] the target is AtWRKY75DBD (Arabidopsis thaliana, UniProt Q9FYA2 58-145). Briefly: DPI-ELISA; up to 100 ug crude extract (data not shown); DPI-ELISA: 2 pmol ds-bio DNA per well, crude E. coli extract in protein extraction buffer (HEPES, 100 mM salt per Additional file 1), 1 h, PBS-T washes pH 7.5. The note with it: protein: recombinant; tags: C-terminal V5:His; label: 5' biotin (DPI-ELISA); 33P (EMSA).

Data set [5] addresses T3, AtWRKY33cDBD (Arabidopsis thaliana, UniProt Q8S8P5 346-449). Briefly: DPI-ELISA; DPI-ELISA: 2 pmol ds-bio DNA per well, crude E. coli extract in protein extraction buffer (HEPES, 100 mM salt per Additional file 1), 1 h, PBS-T washes pH 7.5. The following applies: protein: recombinant; tags: C-terminal V5:His; label: 5' biotin (DPI-ELISA); 33P (EMSA).
The target in data set [6] is T3, AtWRKY33cDBD. Briefly: DPI-ELISA; also at higher protein amounts (data not shown); DPI-ELISA: 2 pmol ds-bio DNA per well, crude E. coli extract in protein extraction buffer (HEPES, 100 mM salt per Additional file 1), 1 h, PBS-T washes pH 7.5. The following applies: protein: recombinant; tags: C-terminal V5:His; label: 5' biotin (DPI-ELISA); 33P (EMSA).
The target of data set [7] is T4, AtWRKY11DBD (Arabidopsis thaliana, UniProt Q9SV15 229-325). Kind of data set: EMSA; DPI-ELISA: 2 pmol ds-bio DNA per well, crude E. coli extract in protein extraction buffer (HEPES, 100 mM salt per Additional file 1), 1 h, PBS-T washes pH 7.5. The note with it: protein: recombinant; tags: C-terminal V5:His; label: 5' biotin (DPI-ELISA); 33P (EMSA).
The target in data set [8] is T4, AtWRKY11DBD. Kind of data set: competition DPI-ELISA; up to 50 pmol competitor; DPI-ELISA: 2 pmol ds-bio DNA per well, crude E. coli extract in protein extraction buffer (HEPES, 100 mM salt per Additional file 1), 1 h, PBS-T washes pH 7.5. The note with it: protein: recombinant; tags: C-terminal V5:His.
Data set [9] concerns the target T1, AtBPC2. Kind of data set: competition DPI-ELISA; 1000 pmol DNA reduced binding irrespective of sequence; DPI-ELISA: 2 pmol ds-bio DNA per well, crude E. coli extract in protein extraction buffer (HEPES, 100 mM salt per Additional file 1), 1 h, PBS-T washes pH 7.5. The following applies: protein: recombinant; tags: N-terminal His (pET32b-GW).
Data set [10] has as its target T1, AtBPC2. Kind of data set: DPI-ELISA; DPI-ELISA: 2 pmol ds-bio DNA per well, crude E. coli extract in protein extraction buffer (HEPES, 100 mM salt per Additional file 1), 1 h, PBS-T washes pH 7.5. The following applies: protein: recombinant; tags: N-terminal His (pET32b-GW); label: 5' biotin.

T3 sequence (Q8S8P5 346-449): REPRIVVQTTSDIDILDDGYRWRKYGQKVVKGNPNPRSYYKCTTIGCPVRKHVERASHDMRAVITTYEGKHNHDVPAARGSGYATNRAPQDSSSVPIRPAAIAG
T4 sequence (Q9SV15 229-325): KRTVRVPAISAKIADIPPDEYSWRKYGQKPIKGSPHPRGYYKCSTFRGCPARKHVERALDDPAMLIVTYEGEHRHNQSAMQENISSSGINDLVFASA
Sequence of AtWRKY75DBD (Q9FYA2 58-145): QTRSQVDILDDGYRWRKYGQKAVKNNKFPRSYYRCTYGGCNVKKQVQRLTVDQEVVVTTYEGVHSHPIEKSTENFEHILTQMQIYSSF
Sequence of AtWRKY50DBD (Q8VWQ5 99-173): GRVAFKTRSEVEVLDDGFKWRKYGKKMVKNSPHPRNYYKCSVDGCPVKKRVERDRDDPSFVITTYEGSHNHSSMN

B1: GA-probe, non-biotinylated competitor (dsDNA)
DNA 1: TAAAGGAGAAAGAAAGAGAAAGAGAGTTTC
DNA 2: GAAACTCTCTTTCTCTTTCTTTCTCCTTTA
Turning to B1, in data set [1], the binding result is given as “binds”.

B2: Cm-probe (dsDNA)
DNA 1: AATTCTCCCTTATCTGCAGTCAGCATCCGG
DNA 2: CCGGATGCTGACTGCAGATAAGGGAGAATT
On to B2, for which the binding result in [2] is “no binding”.

B3: C-probe (C-box) (dsDNA)
DNA 1: AATTCTCCCTTATCTGACGTCAGCATCCGG
DNA 2: CCGGATGCTGACGTCAGATAAGGGAGAATT
Take B3: in data set [2], the binding result is on record as “binds”.

B4: W2-probe (W2Bio) (dsDNA)
DNA 1: AAATTATTCAGCCATCAAAAGTTGACCAATAAT
DNA 2: ATTATTGGTCAACTTTTGATGGCTGAATAATTT
Regarding B4, in [3], the binding signal is > 2 fold absorbance vs AtWRKY33cDBD. The figures for the binding result in data set [4] and in [5] were “no binding” and “binds”, respectively.

B5: W2m-probe (W2mBio) (dsDNA)
DNA 1: AAATTATTCAGCCATCAAAAGTTACCCAATAAT
DNA 2: ATTATTGGGTAACTTTTGATGGCTGAATAATTT
B5: the binding result in data set [6], in data set [4] and in data set [7] was “no binding” each time.

B6: W2m-probe, non-biotinylated competitor (dsDNA)
DNA 1: AAATTATTCAGCCATCAAAAGTTACCCAATAAT
DNA 2: ATTATTGGGTAACTTTTGATGGCTGAATAATTT
Regarding B6, the binding result in [8] is given as “no binding”.

B7: GAm-probe, non-biotinylated competitor (dsDNA)
DNA 1: TAATGCAGCAAGTAAGACTACGACTGTTTC
DNA 2: GAAACAGTCGTAGTCTTACTTGCTGCATTA
As to B7, the binding result in [9] is listed as “no binding”.

B8: GA-probe (GABio) (dsDNA)
DNA 1: TAAAGGAGAAAGAAAGAGAAAGAGAGTTTC
DNA 2: GAAACTCTCTTTCTCTTTCTTTCTCCTTTA
In the case of B8, the binding result in [10] is given as “binds”.

B9: GAm-probe (GAmBio) (dsDNA)
DNA 1: TAATGCAGCAAGTAAGACTACGACTGTTTC
DNA 2: GAAACAGTCGTAGTCTTACTTGCTGCATTA
Turning to B9, the binding result in [10] is “no binding”.
